Patent US9056892B2, “Retrograde transport peptide and use of same for delivery to central nervous system” (UNIVERSITY OF WASHINGTON, priority 2011, dated 2015)
No end group written: not given here. *: point of attachment. Biotin = O=C1N[C@H]2[C@H](CS[C@H]2CCCCC(=O)*)N1

What was measured:
[1] = Delivery to the CNS after intraperitoneal injection; assay type: in vivo
Source text: The methods described above in Example 1 were modified to explore alternative modes of delivery to intramuscular injection.

[2] = system: neurons in the human spinal cord; assay: Labeling of fresh frozen human spinal cord sections by biotinylated 2404 complexed with quantum dot streptavidin; assay type: binding; settings: overall conclusion
Method: FIGS. 6A-6D. Photomicrographs showing TAxI-Streptavidin labels neurons in the adult human spinal cord. Steptavidin conjugated quantum dots (Qdots) were complexed with biotinylated TAxI peptide and incubated on human spinal cord tissue with anti-NeuN and anti-ChAT antibodies. FIG. 6A. Confocal micrographs of ventral root motor neurons stained immunofluorescently for NueN (prominent cytoplasmic stain) and ChAT (lighter cytoplasmic staining) and TAxI-Qdots (primarily visible in the nuclear region). FIG. 6B. High magnification images of the ventral horn stained by immunofluorescence. FIG. 6C. High magnification images of the dorsal grey matter stained by immunofluorescence. FIG. 6D. Spinal cord tissue pre-blocked with 10-fold excess of TAxI-peptide prior to immunofluorescence for NeuN and ChAT and TAxI-QDots.
The ability to target motor neurons that transport peptide-protein complexes and biologically active proteins into the spinal cord provides tremendous potential for utilizing and delivering novel therapeutics for the CNS. This Example examined whether the 2404-peptide could bind to neural elements within the fresh frozen sections of the human spinal cord. […] 2404-steptavidin labeled cells were not prominent in dorsal aspects of the spinal cord.

[3] = system: spinal cord motor neurons; assay: Cre recombinase delivery into spinal cord after IM injection in Ai14 reporter mice (tdTomato expression); assay type: in vivo; settings: 2.5 μg into gastrocnemius, one week post-injection
Method: To have utility as a therapeutic protein delivery system, the TAxI peptide must traffic cargo without rapid degradation or sequestration. To test for TAxI-mediated delivery of active enzyme to the spinal cord, we generated a series of Cre recombinase chimeras: wild-type Cre (Cre), Cre fused to the TAxI peptide (TAxI-Cre), and Cre fused to a mutated TAxI moiety (TAxI^Q-Cre). After purification, each recombinant Cre protein was injected (2.5 μg) into the gastrocnemius of the Ai14 reporter mice. In these mice, delivery of biologically active Cre recombinase results in td-Tomato expression due the excision of a floxed stop-codon.[27] One week post-injection, confocal microscopy was used to image spinal cords isolated after perfusion fixation. […] Furthermore, td-Tomato^+-cells projected into intermediate lamina of the spinal cord as well as into interneuron polls within multiple longitudinal segments, similar to efferent motor neurons (inset).
The coding sequence for Cre recombinase was obtained from the University of Washington Yeast Resource Center. The TAxI peptide sequence was added to the 5-prime end and both TAxI-Cre and wild-type Cre were subcloned into pRSETb (Invitrogen). To allow for expression and purifaction, each plasmid was transformed into BL21(D3)pLysS and grown in media supplemented with IPTG/X-gal (Promega). […]

Molecule: ASGAQAR (GGCASGAQARCGG; disulfide (positions not given here); not fully specified (N-terminus, bridges); also: cyclic, mode not given here) [Clone 2404Q]
- delivery to the CNS [1]: robust delivery to the CNS

Molecule: QSQSQMR (Biotin-SACQSQSQMRCGGG; disulfide (positions not given here); not fully specified (bridges); also: cyclized, mode not given here) [Clone 2404]
- delivery to the CNS [1]: robust delivery to the CNS
- binding and labeling of neurons in the human spinal cord [2]: able to bind and label neurons in the human spinal cord specifically

Molecule: TSTAPHLRLRLTSR [Clone 4042]
- delivery to the CNS [1]: robust delivery to the CNS

B1: Cre: wild-type Cre recombinase, recombinant 6×-his-tagged (protein, UniProt P06956 1-343, looked up)
Recombinase cre: MSNLLTVHQNLPALPVDATSDEVRKNLMDMFRDRQAFSEHTWKMLLSVCRSWAAWCKLNNRKWFPAEPEDVRDYLLYLQARGLAVKTIQQHLGQLNMLHRRSGLPRPSDSNAVSLVMRRIRKENVDAGERAKQALAFERTDFDQVRSLMENSDRCQDIRNLAFLGIAYNTLLRIAEIARIRVKDISRTDGGRMLIHIGRTKTLVSTAGVEKALSLGVTKLVERWISVSGVADDPNNYLFCRVRKNGVAAPSATSQLSTRALEGIFEATHRLIYGAKDDSGQRYLAWSGHSARVGAARDMARAGVSIPEIMQAGGWTNVNIVMNYIRNLDSETGAMVRLLEDGD
modifications: 6xHis tag
notes: wild-type Cre recombinase, recombinant 6×-his-tagged
- tdTomato colocalization with NeuN and ChAT [3]: did not induce tdTomato expression in either NeuN or ChAT-positive cells
- tdTomato expression in the lumbar spinal cord ([3]; confocal microscopy): small punctuate tdTomato^+-cells
